From patent US20110301098A1, “TREATMENT FOR INTIMAL HYPERPLASIA AND RELATED CONDITIONS” (priority 2006, published 2011)
Read-outs that look alike come from different tables or passages of the source. Positions of bridges follow the written chain, without caps; N, C: chain ends. Non-standard residues stand in square brackets, D forms with d. Residues, ends and D or L forms follow the SMILES beside them. *: point of attachment. Hydrocinnamoyl = O=C(CCc1ccccc1)*; dCha = N[C@H](CC1CCCCC1)C(=O)O; Orn = NCCC[C@H](N)C(=O)O

Legend:
[1] = molecular target: T1, C5a receptor (Mus musculus, UniProt P30993); conditions: in vivo
T1 sequence (P30993 1-351): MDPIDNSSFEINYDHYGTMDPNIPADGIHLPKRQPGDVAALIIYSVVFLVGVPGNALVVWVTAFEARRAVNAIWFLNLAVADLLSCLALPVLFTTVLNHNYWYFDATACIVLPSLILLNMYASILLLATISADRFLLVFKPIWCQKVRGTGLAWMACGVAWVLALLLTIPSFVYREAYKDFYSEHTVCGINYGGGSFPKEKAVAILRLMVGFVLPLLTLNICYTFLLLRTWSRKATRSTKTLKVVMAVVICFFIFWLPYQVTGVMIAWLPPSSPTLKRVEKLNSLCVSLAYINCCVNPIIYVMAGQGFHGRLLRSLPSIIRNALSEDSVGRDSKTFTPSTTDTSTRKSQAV
Experimental: (§1) Male ApoE^−/− mice, aged between 12 and 16 weeks, were used for all experiments. Mice were fed a standard chow diet, and received water and food ad libitum. Before surgery, mice were anesthetized by an intra-peritoneal injection with Midazolam (5 mg/kg, Roche), Medetomidine (0.5 mg/kg, Orion) and Fentanyl (0.05 mg/kg, Janssen). Cholesterol levels in serum were determined at the time of sacrifice.
(§2) Briefly, caval veins were harvested from genetically identical donor mice, and were preserved before implantation at 4° C. in 0.9% NaCl containing 100 U/ml of heparin. In the graft recipient, the right carotid artery was dissected and cut in the middle. A polyethylene cuff was placed at both ends of the artery. The artery was everted around the cuff and ligated with a silk 8.0 suture. The caval vein was sleeved over the two cuffs and ligated. Successful engraftment was confirmed by the presence of pulsations and turbulent blood flow within the vein graft. The whole procedure usually takes about 30 minutes.
(§3) Cross-sections of vein grafts were stained with hematoxylin-phloxine-saffron, using conventional methods. The intimal hyperplasia surface of the thickened vein grafts was measured using image analysis software (Qwin, Leica). For each vein graft, six equally spaced cross-sections were used to determine the degree of vessel wall thickening.
(§4) To identify macrophages and macrophage-derived foam cells, immunohistochemistry was performed using AIA31240 primary antibodies against mouse macrophages (1:3000, Accurate Chemical). The contribution of macrophages and foam cells to the intimal hyperplasia was measured by computer-assisted analysis (Qwin, Leica) as the area stained with antibody AIA31240, and expressed as a percentage of the total intimal hyperplasia surface.
(§5) In order to inhibit C5a function, 21 mice were randomly divided in to three groups, and were treated with the cyclic peptide C5a antagonists AcF-[OP-(D-Cha)WR] (AcF) or hydrocinnamate-[OP-(D-Cha)WR] (HC). […]

[2] = molecular target: T1, C5a receptor; experiment: C5a receptor antagonist treatment in the ApoE-/- mouse vein graft model
Experimental: as §1, §2, §3, §4, §5

[3] = system: PDGF receptor; conditions: pretreatment of the vein grafts; cited from earlier work
[4] = system: vein grafts; experiment: Recombinant C5a applied to vein grafts in hypercholesterolaemic ApoE-/- mice; assay type: in vivo, mouse; conditions: for intimal hyperplasia surface: control 0.24±0.02; for macrophage/foam cell content of intimal hyperplasia: control 17±2%
Experimental: 153: 1301-1310. […] The whole procedure usually takes about 30 minutes.
To examine the involvement of C5a in the development of vein graft thickening, we applied recombinant C5a in two concentrations (0.5 μg and 5 μg, dissolved in 100 μl 20% Pluronic gel, n=7 per group,) directly to the vein graft at the time of surgery. In the control group 100 μl of 20% Pluronic gel without C5a was applied.
Twenty-one mice were randomly divided into three groups. In the treatment groups, either 0.5 μg or 5 μg of E. coli-derived recombinant mouse C5a (HyCult Biotechnology) was dissolved in 0.1 ml of 20% Pluronic gel, and applied around the venous interposition at the time of surgery. In the control group 0.1 ml of 20% Pluronic gel was applied without C5a. Mice were sacrificed after 28 days.

**Q.** For `N=C(N)NCCC[C@@H]1NC(=O)[C@H](Cc2c[nH]c3ccccc23)NC(=O)[C@@H](CC2CCCCC2)NC(=O)[C@@H]2CCCN2C(=O)[C@@H](NC(=O)CCc2ccccc2)CCCNC1=O` [HC, hydrocinnamate-[OP-(D-Cha)WR]] (Hydrocinnamoyl-[Orn]P[dCha]WR; lactam 1-C), which “body weight or serum cholesterol” value [1] is on record?
**A.** No differences

**Q.** With `CC(=O)N[C@@H](Cc1ccccc1)C(=O)N[C@H]1CCCNC(=O)[C@H](CCCNC(=N)N)NC(=O)[C@H](Cc2c[nH]c3ccccc23)NC(=O)[C@@H](CC2CCCCC2)NC(=O)[C@@H]2CCCN2C1=O` [AcF, AcF-[OP-(D-Cha)WR]] as the molecule, how does the “decrease in vein graft thickening compared to control mice” value ([2]; 3 mg/kg/day s.c., 28 days after surgery) read?
**A.** 53%

**Q.** And the “body weight or serum cholesterol” value ([2]; between the different treatment groups)?
**A.** No differences

**Q.** For `Cc1ccc(C(=O)Nc2ccc(S(=O)(=O)O)c3cc(S(=O)(=O)O)cc(S(=O)(=O)O)c23)cc1NC(=O)c1cccc(NC(=O)Nc2cccc(C(=O)Nc3cc(C(=O)Nc4ccc(S(=O)(=O)O)c5cc(S(=O)(=O)O)cc(S(=O)(=O)O)c45)ccc3C)c2)c1` [Suramin], which neointimal hyperplasia [3] is on record?
**A.** significant reduction

B1: C5a: E. coli-derived recombinant mouse C5a (HyCult Biotechnology) (protein, UniProt P06684 679-755, looked up)
C5a anaphylatoxin: NLHLLRQKIEEQAAKYKHSVPKKCCYDGARVNFYETCEERVARVTIGPLCIRAFNECCTIANKIRKESPHKPVQLGR
modifications: C5a anaphylatoxin
**Q.** With B1 as the molecule, how does the intimal hyperplasia surface ([4]; 0.5 μg C5a in 20% Pluronic gel applied to vein graft at surgery, 28 days) read?
**A.** 0.29±0.03 mm^2

**Q.** And the “macrophage/foam cell content of intimal hyperplasia” value ([4]; 0.5 μg C5a, 28 days)?
**A.** 22±3%

**Q.** What about the “body weight and serum cholesterol” value ([4]; 0.5 μg and 5 μg C5a vs control) of the same molecule?
**A.** did not differ

**Q.** What about the luminal area ([4]; 0.5 μg and 5 μg C5a vs control, 28 days) of the same molecule?
**A.** No significant differences

**Q.** And the intimal hyperplasia surface ([4]; 5 μg C5a in 20% Pluronic gel applied to vein graft at surgery, 28 days)?
**A.** 0.41±0.04 mm^2

**Q.** And the “macrophage/foam cell content of intimal hyperplasia” value ([4]; 5 μg C5a, 28 days)?
**A.** 33±2%
